The data set deals with the molecule itself. In words: crystal structure; hanging-drop vapour diffusion at 295 K, 0.1 M MES pH 5.6, 0.1 M ammonium sulfate, 27% PEG 3350; space group C2, three monomers in the asymmetric unit; protein pre-incubated with small-molecule ligands.

B1: Plasmodium falciparum spermidine synthase, 39-residue N-terminally truncated construct (enzyme, UniProt Q8II73 40-321, looked up)
chain: SKKWFSEFSIMWPGQAFSLKIKKILYETKSKYQNVLVFESTTYGKVLVLDGVIQLTEKDEFAYHEMMTHVPMTVSKEPKNVLVVGGGDGGIIRELCKYKSVENIDICEIDETVIEVSKIYFKNISCGYEDKRVNVFIEDASKFLENVTNTYDVIIVDSSDPIGPAETLFNQNFYEKIYNALKPNGYCVAQCESLWIHVGTIKNMIGYAKKLFKKVEYANISIPTYPCGCIGILCCSKTDTGLTKPNKKLESKEFADLKYYNYENHSAAFKLPAFLLKEIENI
notes: Spermidine synthase of Plasmodium falciparum, construct lacking the first 39 N-terminal residues, in the p15-Tev-LIC vector, as described in Dufe et al. (2007); The crystals also held small-molecule ligands (MTA, dcAdoMet, putrescine, spermidine, 4MAN, 4AMA, BIPA); also called PfSpdS; SpdS; source: His-tag removed with TEV protease; not shown: His6, N-terminal, cleaved
In the case of B1, the binding result was “binds”.

The values are drawn from paper PMC4356361, “Three-dimensional structures of Plasmodium falciparum spermidine synthase with bound inhibitors suggest new strategies for drug design” (Acta Crystallographica Section D: Biological Crystallography, 2015).
